Biological target: TAT-S1 (MBP-TAT-mCherry-HA-NLS-S1-KRAB) (artificial (designed))
Experiment: EMSA; EMSA: ZBA buffer (composition not given), 0.05% NP-40, 0.1 mg/ml BSA, 10% glycerol, 35-75 pM target, 1.5 h at room temperature; pH not given
Settings: protein: recombinant, tags: N-terminal MBP, TAT(48-57), SV40 NLS, C-terminal KRAB, label: 5'-biotin on strand 1, blunt

B1: S1 target site EMSA probe (dsDNA)
DNA 1: CCTCTTCGCTATTACGCCAGCCATGCGTAGGGAGCCGCGGAACGTTCGATCGTACTCGAGTCAGGGTG
DNA 2: CACCCTGACTCGAGTACGATCGAACGTTCCGCGGCTCCCTACGCATGGCTGGCGTAATAGCGAAGAGG
- Kd: 8 ± 1.5 nM
